Measured values published in publication PMC6451138 (Nucleic Acids Research, 2019).
One block for each molecule: values may come before it.

What was measured:
[1] = target: AtmtSSB2 (Arabidopsis thaliana); experiment: SEC
[2] = target: exonuclease deficient AtPolIB (AtPolIB exo-) (Arabidopsis thaliana); experiment: SEC-MALS
[3] = target: AtmtSSB1 (Arabidopsis thaliana); experiment: SEC
[4] = target: exonuclease deficient AtPolIB (AtPolIB exo-) (Arabidopsis thaliana); experiment: MST
AtmtSSB1 [5] = target: T1, AtmtSSB1 (Arabidopsis thaliana, UniProt Q84J78 33-201); experiment: fluorescence anisotropy
T1 sequence: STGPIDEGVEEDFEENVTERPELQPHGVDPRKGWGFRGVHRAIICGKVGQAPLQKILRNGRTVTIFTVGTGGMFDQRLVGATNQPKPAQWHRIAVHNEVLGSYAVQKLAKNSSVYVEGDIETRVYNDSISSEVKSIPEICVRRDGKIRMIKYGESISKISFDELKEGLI

SEC = target: the molecule itself; experiment: SEC
AtmtSSB1 [6] = target: T1, AtmtSSB1; experiment: fluorescence anisotropy; remark: listed apart in the source

stoichiometry N [1]: 4
Molecule: AtmtSSB2 (natural protein)

stoichiometry N [2]: 2
Molecule: exonuclease deficient AtPolIB (AtPolIB exo-) (enzyme)

stoichiometry N [3]: 4
Kd [4]: 1480 nM
Molecule: AtmtSSB1 (natural protein)

B1: pssDNA-10 (Cy3) (mixed)
DNA 1: AACACTGTGAGCTTAGAGCCCCGGGG
DNA 2: CTAAGCTCACAGTGTT
binding result (AtmtSSB1 [5]): no binding

Kd [4]: > 250000 nM
B2: AtWhirly2 (natural protein, Arabidopsis thaliana, UniProt Q8VYF7 30-238, looked up)
chain: ASWSNSSTPGRGFPGKDAAKPSGRLFAPYSIFKGKAALSVEPVLPSFTEIDSGNLRIDRRGSLMMTFMPAIGERKYDWEKKQKFALSPTEVGSLISMGSKDSSEFFHDPSMKSSNAGQVRKSLSVKPHADGSGYFISLSVNNSILKTNDYFVVPVTKAEFAVMKTAFSFALPHIMGWNRLTGHVNTEALPSRNVSHLKTEPQLELEWDK
stoichiometry N (SEC): 4

Molecule: TTTTTTTTTTTTTTTTTTTTTTTTTTTTTTTTTTTTTTTTTTTTT (ssDNA) [ssDNA(45), Poly-T 45]
Kd (AtmtSSB1 [6]): 62.8 ± 3.6 nM

B3: AtOSB3 (natural protein, Arabidopsis thaliana, UniProt Q8GWJ4 62-440, looked up)
chain: VATEKESTPPKKIEYKPEISNWINLIGFVEQPVQFGPCSDGKFWAGTVISQRSGSKSSNFWIPIIFEGDLAKIAVQHVKKEDRIHVSGKLFIDSPPPNVTYSQSNVQVMVQNLNFVQAATSTTKTISPPEKEVTSIKKKPARSKKVKVIDEETSNSWKHLIENPKEWLDHRGNKANGLVKPGHPDFKMKVGGLSLWLSTAPDWALLKLEELKFDVLVPKGNIKLNQLKGEESWKDLVQNPDKWLDNRSDKTNVKYPDFKHKETGEALWMTNSPIWVLSKLPPLKKNQERPFMSNKVSQLELDVEVPKGNLKQLKREEIWKNLVENPSKWWDNRLDKRNPKGPDFKHKETGEALWIGDSPTWALSKLPPLKKNQERPVMA
stoichiometry N (SEC): 4

B4: AtOSB2 (natural protein, Arabidopsis thaliana, UniProt Q8GXH3 21-371, looked up)
chain: ASEITTGKRITSPQIRLYTAAAVGGKTGNGERKQRAKAPAKTPEAVTPVKPLEIASVTATTENELPRPNEIAYESEVANWVNLIGFVDQPVQFEASSDGKFWAGTVISQRSASDSSGFWIPIIFEGDLAKTAARYVSKDDQIHVSGKLFIDSPPPNMTYAQANVQVLVQNLNFIQPMSPSPSPFMVMSSSEKEESGIKKQPARAKQDIVIDEASDSWNHLIENPKEWWDHRENKVNGLVKPRHPDFKSKDSSFSLWLNKAPNWVLPKLEGLEFDVLVPKARVVKQLKGEESWKDLVQNPDKWWDNRIDKRNAKAPDFKHKETGEALWLNESPTWVLPKLPPVKKKQESIVF
stoichiometry N (SEC): 4
